Measured values taken from patent US11236367B2, “Fatty acid decarboxylase and its uses” (COMMISSARIAT A L'ENERGIE ATOMIQUE ET AUX ENERGIES …, priority 2016, dated 2022).

B1: Phaeodactylum enzyme: GMC oxidoreductase of the diatom Phaeodactylum tricornutum expressed in Escherichia coli (protein, listed as Phaeodactylum tricornutum)
chain: YDYIICGGGLAGCVLAERLSQDESKRVLVLEAGGSDYKSLFIRIPAGVLRLFRSKYDWQHETGGEKGCNGRNVFLQRGKILGGSSCTNVCLHHRGSAEDYNSWNIPGWTATDVLPFFKQSQKDETGRDATFHGADGEWVMDEVRYQNPLSKLFLEVGEAAGLGTNDDFNNWSHPQDGVGRFQVSEVNGERCSGATAFLSKAAKRSNVIVRTGTMVRRIDFDETKTAKGITYDLMGDDTCTTFQACLKEGGEVLVTGGAIASPQLLMCSGIGPGKHLRSLGIPVVHDNSAVGENLQDHPAAVVSFKTPQKGVSVTSKLRLFGKTNPIPVFQWLFFKSGLLTSTGCDHGAFVRTSDSLEQPDLQIRFLAARALGPDGMTTYTKFRTMKTVEDGYSFQSVACRAKSKGRIRLSSSNSHVKPMIDGGYLSNQDDLATLRAGIKLGRMLGNRPEWGEYLGQEVYPGPDVQTDEEIDEYIRNSLHTANALTGTCKMGTGRGAVVGPDLRVIGVNGVRVGDSSVFPCIPGGQTATPTVMIGDRAAVFVRQPVSQLNIEIFREKGGTHPGATTASA
B2: Chlorella GMC oxidoreductase: GMC protein from Chlorella variabilis NC64A; 69 kDa FAD-dependent fatty acid decarboxylase (alkane synthase) (protein, listed as Chlorella variabilis)
chain: RASAVEDIRKVLSDSSSPVAGQKYDYILVGGGTAACVLANRLSADGSKRVLVLEAGPDNTSRDVKIPAAITRLFRSPLDWNLFSELQEQLAERQIYMARGRLLGGSSATNATLYHRGAAGDYDAWGVEGWSSEDVLSWFVQAETNADFGPGAYHGSGGPMRVENPRYTNKQLHTAFFKAAEEVGLTPNSDFNDWSHDHAGYGTFQVMQDKGTRADMYRQYLKPVLGRRNLQVLTGAAVTKVNIDQAAGKAQALGVEFSTDGPTGERLSAELAPGGEVIMCAGAVHTPFLLKHSGVGPSAELKEFGIPVVSNLAGVGQNLQDQPACLTAAPVKEKYDGIAISDHIYNEKGQIRKRAIASYLLGGRGGLTSTGCDRGAFVRTAGQALPDLQVRFVPGMALDPDGVSTYVRFAKFQSQGLKWPSGITMQLIACRPQSTGSVGLKSADPFAPPKLSPGYLTDKDGADLATLRKGIHWARDVARSSALSEYLDGELFPGSGVVSDDQIDEYIRRSIHSSNAITGTCKMGNAGDSSSVVDNQLRVHGVEGLRVVDASVVPKIPGGQTGAPVVMIAERAAALLTGKATIGASAAAPATVAA
B3: Chlamydomonas enzyme: GMC oxidoreductase of Chlamydomonas reinhardtii expressed in Escherichia coli (protein, listed as Chlamydomonas reinhardtii)
chain: LSVRAAAGPAGSEKFDYVLVGGGTASCVLANKLSADGNKKVLVLEAGPTGDAMEVAVPAGITRLFAHPVMDWGMSSLTQKQLVAREIYLARGRMLGGSSGSNATLYHRGSAADYDAWGLEGWSSKDVLDWFVKAECYADGPKPYHGTGGSMNTEQPRYENVLHDEFFKAAAATGLPANPDFNDWSHPQDGFGEFQVSQKKGQRADTYRTYLKPAMARGNLKVVIGARATKVNIEKGSSGARTTGVEYAMQQFGDRFTAELAPGGEVLMCSGAVHTPHLLMLSGVGPAATLKEHGIDVVSDLSGVGQNLQDHPAAVLAARAKPEFEKLSVTSEVYDDKCNIKLGAVAQYLFQRRGPLATTGCDHGAFVRTSSSLSQPDLQMRFVPGCALDPDGVKSYIVFGELKKQGRAWPGGITLQLLAIRAKSKGSIGLKAADPFINPAININYFSDPADLATLVNAVKMARKIAAQEPLKKYLQEETFPGERASSDKDLEEYIRRTVHSGNALVGTAAMGASPAAGAVVSSADLKVFGVEGLRVVDASVLPRIPGGQTGAATVMVAERAAALLRGQATIAPSRQPVAV

Assays:
E. coli cells [1] = experiment: Hydrocarbon content of E. coli cells expressing algal GMC oxidoreductase; type: cell-based, Escherichia coli; details: no fatty acid substrate added; absent with empty vector
From the text: Chlamydomonas reinhardtii and Phaeodactylum tricornutum Alkane synthase was amplified from a synthetic gene codon-optimized for E. coli using for Chlamydomonas reinhardtii a primer forward 5′-[…]-3′ (SEQ ID No 29) and a primer reverse, 5′-[…]-3′ (SEQ ID No 30). For Phaeodactylum tricornutum, forward primer 5′-[…]-3′ (SEQ ID No 31), reverse primer 5′-[…]-3′ (SEQ ID No 32). Genes were cloned into pLIC07 vector, which introduced downstream of the ATG start codon a cassette coding for a 6 His-tagged thioredoxin and a tobacco etch virus (TEV) protease-cleavage site. E. coli strain expressing the GMC oxidase from Chlorella variabilis NC64A, Chlamydomonas reinhardtii or Phaeodactylum triconutum were grown at 37° C. with agitation at 180 rpm and light at 100 μmole.photon.m^−2·s^−1. When OD reached 0.6, 500 μM of isopropyl β-D-1-thiogalactopyranoside was added. Cells were then grown for 24 hours at 37° C., harvested, transmethylated using methanol added with 5% sulfuric acid and hydrocarbons were extracted with hexane and analyzed by GC-MS as previously described.

[2] = target: T1, Chlorella GMC oxidoreductase (Chlorella variabilis, UniProt A0A248QE08); experiment: Enzymatic assay with purified recombinant enzyme (GC-MS of products); type: biochemical, Chlorella variabilis NC64A; details: for fatty acid substrate range of the enzyme: purified recombinant enzyme, white light
T1 construct: 6 His-tagged thioredoxin (N, cleaved yes); TEV protease-cleavage site (N, cleaved yes); made in house; host or cells: E. coli BL21-CodonPlus (DE3)-RIL
Method: (§1) All assays were performed in transparent glass vials sealed using caps with septum. Optimum pH was determined using a Teorell Stenhagen universal buffer (33 mM citric acid monohydrate, 33 mM phosphoric acid, 100 mM NaOH, 16.7 mM of boric acid, pH 8.5 adjusted with 1N HCl). Other assays were performed in 100 mM Tris HCl pH 8.5, 100 mM NaCl. Reaction mixtures (500 μL) typically contained 160 nM purified enzyme (stock ? solution 2.5 mg ml^−1) and 400 μM substrate (stock solution 10 mM in ethanol). In some assays, a lipase was used with the alkane synthase. In this case, substrate was a triacylglycerol. Generally, samples were shaken at 200 rpm during 15 min under LED-made white light at 2000 μmol ? photons m^−2s^−1. After the incubations, samples were heated at 95° C. during 15 min to stop the enzymatic reaction. Samples were cooled down and internal standard (hexadecane) was added (45 nmol from a 4.5 mM stock solution in chloroform). NaOH was then added to the reaction mixture (10 μL from a stock solution of 10 M) and samples were vortexed for 5 min. Then 250 μL of hexane was added and samples were vortexed for 5 min to extract alkanes and alkenes. The hexane phase was collected by centrifugation and analyzed by GC-MS-FID. The analysis was done by direct injection of 100 μl of the headspace into a GC-MS. In FIG. 11 activity on 1-^13C-palmitate was monitored by release of ^13CO2 using membrane inlet mass spectrometry. Illuminations were provided by CBT-120 LEDs (Luminous, Billerica) either blue (peak at 460 nm, 25 nm FWHM), or red (peak at 635 nm, 15 nm FWHM) at an intensity of 850 μmol photons m^−2 s^−1.

E. coli cells [3] = experiment: Co-expression in E. coli of a GMC oxidoreductase and a lipase; type: cell-based, Escherichia coli; details: compared to E. coli strains expressing the GMC oxidoreductases alone
Method: E. coli strain transformed with a vector expressing the GMC oxidase from Chlorella variabilis NC64A (or Chlamydomonas reinhardtii) and/or a vector expressing the lipase from the bacterium Staphylococcus hyicus, were grown in TB medium at 37° C. Expression was induced with 1 mM of isopropyl β-D-1-thiogalactopyranoside (added with 0.2% arabinose for co-expression). Cells were then grown overnight at 25° C. at 100 μmole.photon.m^−2·s^−1 and 6 h at 2000 μmole.photon.m^−2·s^−1. Cells were harvested (4 ml at OD=5), transmethylated using methanol added with 5% sulfuric acid and hydrocarbons were analyzed by SPME and GC-MS as previously described.

Chlamydomonas strain = experiment: Hydrocarbons in Chlamydomonas strain with chloroplast genome transformed with the Chlorella enzyme cDNA; type: cell-based, Chlamydomonas reinhardtii; details: chloroplastic genome transformed with cDNA of the enzyme
Method: Chlamydomonas reinhardtii CC124 (nit1 nit2; mt−) and Chlamydomonas reinhardtii overexpressing the alkane synthase gene were cultured in minimal medium (Harris, 1989) in one liter photobioreactors (BIOSTAT Aplus, Sartorius Stedim Biotech) operated as turbidostats. A880 was measured continuously using a biomass probe (Excellprobe, Exner) and cultures were maintained at constant A880 by injection of fresh medium. The pH was maintained at a constant value of 7 by injection of KOH (0.2 N) or HCl (0.2 N). The cultures were stirred using a metal propeller (250 rpm). The gas flow rate was adjusted to 0.5 L min^−1. Air enriched with 2% (v/v) CO2 was generated using mass flow meters (EL flow, Bronkhorst). White light was supplied by eight fluorescent tubes (Osram Dulux L 18 W) placed radially around the photobioreactor. We used a blue filter (363 special medium blue, Lee filters, USA) and a red filter (113 magenta, Lee filters, USA) to provide respectively blue and red light. Both lights were at same intensity (35 μmol photons m^−2s^−1).
To quantify hydrocarbons together with fatty acids, transmethylation of whole cells was used. […]

[4] = target: T1, Chlorella GMC oxidoreductase; experiment: 13CO2 release from 1-13C-palmitate with the purified enzyme (membrane inlet mass spectrometry); type: biochemical, Chlorella variabilis NC64A; details: CO2 production monitored, light on/off
Method: as §1, with “Then 250 μL of hexane was added and samples were vortexed for 5 min to extract alkanes and alkenes.” left out, “The analysis was done by direct injection of 100 μl of the headspace into a GC-MS.” left out, “Illuminations were provided by CBT-120 LEDs (Luminous, Billerica) either blue (peak at 460 nm, 25 nm FWHM), or red (peak at 635 nm, 15 nm FWHM) at an intensity of 850 μmol photons m^−2 s^−1.” left out
Online measurements of ^12CO2 (m/z=44) and ^13CO2 (m/z=45) were monitored using mass spectrometry (model Prima B, Thermo Scientific). […]

Molecule | hydrocarbons formed in E. coli cells expressing the enzyme (E. coli cells [1]) | dependence of pentadecane production on light intensity [2] | fatty acid substrate range of the enzyme [2] | fatty acid substrate range of the enzyme ([2]; listed as Chlorella alkane synthase) | increase in most hydrocarbons on co-expression with bacterial lipase (Uniprot P04635) (E. coli cells [3]) | change of hydrocarbon content in transformed Chlamydomonas strain (Chlamydomonas strain) | dependence of enzyme activity on light [4]
B1 | albeit in lower amounts |  |  |  |  |  | 
B2 | presence of long chain alkanes from 13 to 17 carbons | increases linearly with light intensity | active on a variety of saturated free fatty acids ranging from C12 to C22 carbons | can use C12 to C22 fatty acids | two to three-fold increase | an increase was noted in the heptadecene content, and heptadecane also appeared | stops immediately when light is turned off
B3 | formation in E. coli cells of pentadecane and heptadecane as well as their monounsaturated analogs |  |  |  | two to three-fold increase |  | 
